We go through 34 molecules from patent US20250243277A1 (AVACTA LIFE SCIENCES, published 2025).

Residue numbers refer to the chain shown, from its start.

The target of this assay is T1, human PD-L1-Fc (R&D Systems) (human, UniProt Q9NZQ7 19-239).
T1 construct: Bought from R&D Systems; Biotinylated in-house for the phage selection; also called huPD-L1-Fc; human PD-L1-Fc antigen; not shown: Fc part of the bought fusion
As to the kind of experiment: soluble Affimer ELISA. (In an ELISA, binding on a coated surface is turned into a signal by an enzyme label.)

T1 sequence (Q9NZQ7 19-239 limits assumed): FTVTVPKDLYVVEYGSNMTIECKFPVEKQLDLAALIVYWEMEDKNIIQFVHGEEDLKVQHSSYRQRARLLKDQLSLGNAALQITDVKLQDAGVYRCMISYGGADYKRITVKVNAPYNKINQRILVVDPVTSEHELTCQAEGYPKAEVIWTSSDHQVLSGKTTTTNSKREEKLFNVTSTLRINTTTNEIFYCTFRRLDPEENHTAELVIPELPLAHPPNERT

B1: Clone 110 (designed binder)
chain: MIPGGLSEAKPATPEIQEIVDKVKPQLEEKTGETYGKLEAVQYKTQVDHTQPKALDWGTNYYIKVRAGDNKYMHLKVFKSLWGSILTDGPEDLVLTGYQVDKNKDDELTGF
notes: His-tagged
B1: the binding result is given as “binds”.

B2: Clone 10 (designed binder)
chain: MIPGGLSEAKPATPEIQEIVDKVKPQLEEKTGETYGKLEAVQYKTQVVDDVKNGFVQGTNYYIKVRAGDNKYMHLKVFKSLIDRHVYWLEEDLVLTGYQVDKNKDDELTGF
notes: His-tagged
Consider B2, for which the binding result is “binds”.

B3: Clone 1 (designed binder)
chain: MIPGGLSEAKPATPEIQEIVDKVKPQLEEKTGETYGKLEAVQYKTQVVVYHVRWNYLGTNYYIKVRAGDNKYMHLKVFKSLSLEEPPVETEDLVLTGYQVDKNKDDELTGF
notes: His-tagged
Regarding B3, the binding result is on record as “binds”.

B4: Clone 101 (designed binder)
chain: MIPGGLSEAKPATPEIQEIVDKVKPQLEEKTGETYGKLEAVQYKTQVDHHHRFAKWWGTNYYIKVRAGDNKYMHLKVFKSLWFNENREDTEDLVLTGYQVDKNKDDELTGF
notes: His-tagged
For B4, the binding result is reported as “binds”.

B5: Clone 103 (designed binder)
chain: MIPGGLSEAKPATPEIQEIVDKVKPQLEEKTGETYGKLEAVQYKTQVDFSFPLVHWYGTNYYIKVRAGDNKYMHLKVFKSLRFRDGGHHVEDLVLTGYQVDKNKDDELTGF
notes: His-tagged
Regarding B5, the binding result is “binds”.

B6: Clone 108 (designed binder)
chain: MIPGGLSEAKPATPEIQEIVDKVKPQLEEKTGETYGKLEAVQYKTQVDREHASVKFWGTNYYIKVRAGDNKYMHLKVFKSLWLEATPHTQEDLVLTGYQVDKNKDDELTGF
notes: His-tagged
For B6, the binding result is “binds”.

B7: Clone 114 (designed binder)
chain: MIPGGLSEAKPATPEIQEIVDKVKPQLEEKTGETYGKLEAVQYKTQVDQSSDLAKLWGTNYYIKVRAGDNKYMHLKVFKSLWNLNSDKSSEDLVLTGYQVDKNKDDELTGF
notes: His-tagged
Regarding B7, the binding result is “binds”.

B8: Clone 109 (designed binder)
chain: MIPGGLSEAKPATPEIQEIVDKVKPQLEEKTGETYGKLEAVQYKTQVDISGVGLVPNGTNYYIKVRAGDNKYMHLKVFKSLNWNYPQQPFEDLVLTGYQVDKNKDDELTGF
notes: His-tagged
On to B8, for which the binding result is reported as “binds”.

B9: Clone 105 (designed binder)
chain: MIPGGLSEAKPATPEIQEIVDKVKPQLEEKTGETYGKLEAVQYKTQVDETSENVIQWGTNYYIKVRAGDNKYMHLKVFKSLWPADILTQHEDLVLTGYQVDKNKDDELTGF
notes: His-tagged
As to B9, the binding result is “binds”.

B10: Clone 112 (designed binder)
chain: MIPGGLSEAKPATPEIQEIVDKVKPQLEEKTGETYGKLEAVQYKTQVDRFYHQWHFLGTNYYIKVRAGDNKYMHLKVFKSLDLRAPRNDNEDLVLTGYQVDKNKDDELTGF
notes: His-tagged
For B10, the binding result was “binds”.

B11: Clone 115 (designed binder)
chain: B10 chain
notes: His-tagged
Turning to B11, the binding result was “binds”.

B12: Clone 95 (designed binder)
chain: MIPGGLSEAKPATPEIQEIVDKVKPQLEEKTGETYGKLEAVQYKTQVDTIHPQAKYWGTNYYIKVRAGDNKYMHLKVFKSLWKNLLKPIHEDLVLTGYQVDKNKDDELTGF
notes: His-tagged
Take B12: the binding result is recorded as “binds”.

B13: Clone 104 (designed binder)
chain: MIPGGLSEAKPATPEIQEIVDKVKPQLEEKTGETYGKLEAVQYKTQVDNAHPLVKNWGTNYYIKVRAGDNKYMHLKVFKSLWRNDTSSIYEDLVLTGYQVDKNKDDELTGF
notes: His-tagged
As for B13, the binding result is on record as “binds”.

B14: Clone 117 (designed binder)
chain: MIPGGLSEAKPATPEIQEIVDKVKPQLEEKTGETYGKLEAVQYKTQVDHEVRKTYEFGTNYYIKVRAGDNKYMHLKVFKSLWFGGWPLAQEDLVLTGYQVDKNKDDELTGF
notes: His-tagged
For the molecule B14, the binding result is on record as “binds”.

B15: Clone 56 (designed binder)
chain: MIPGGLSEAKPATPEIQEIVDKVKPQLEEKTGETYGKLEAVQYKTQVVGGRHRWNWSGTNYYIKVRAGDNKYMHLKVFKSLFEPSGLAAEEDLVLTGYQVDKNKDDELTGF
notes: His-tagged
For the molecule B15, the binding result is reported as “binds”.

B16: Clone 77 (designed binder)
chain: MIPGGLSEAKPATPEIQEIVDKVKPQLEEKTGETYGKLEAVQYKTQVVWDRPRWGWTGTNYYIKVRAGDNKYMHLKVFKSLFKESSRNDEEDLVLTGYQVDKNKDDELTGF
notes: His-tagged
Turning to B16, the binding result was “binds”.

B17: Clone 84 (designed binder)
chain: MIPGGLSEAKPATPEIQEIVDKVKPQLEEKTGETYGKLEAVQYKTQVVLIRHLWSWSGTNYYIKVRAGDNKYMHLKVFKSLFEGENHQIDEDLVLTGYQVDKNKDDELTGF
notes: His-tagged
In the case of B17, the binding result is recorded as “binds”.

B18: Clone 149 (designed binder)
chain: MIPGGLSEAKPATPEIQEIVDKVKPQLEEKTGETYGKLEAVQYKTQVVKTLGVWHWSGTNYYIKVRAGDNKYMHLKVFKSLFEQHAENIEEDLVLTGYQVDKNKDDELTGF
notes: His-tagged
Regarding B18, the binding result is given as “binds”.

B19: Clone 86 (designed binder)
chain: MIPGGLSEAKPATPEIQEIVDKVKPQLEEKTGETYGKLEAVQYKTQVVDVRGQWAWTGTNYYIKVRAGDNKYMHLKVFKSLFQPRTKATEEDLVLTGYQVDKNKDDELTGF
notes: His-tagged
On to B19, for which the binding result was “binds”.

B20: Clone 194 (designed binder)
chain: MIPGGLSEAKPATPEIQEIVDKVKPQLEEKTGETYGKLEAVQYKTQVVEERRIWNWTGTNYYIKVRAGDNKYMHLKVFKSLFTASDTHPAEDLVLTGYQVDKNKDDELTGF
notes: His-tagged
As to B20, the binding result is on record as “binds”.

B21: Clone 11 (designed binder)
chain: MIPGGLSEAKPATPEIQEIVDKVKPQLEEKTGETYGKLEAVQYKTQVVEVQQQENFQGTNYYIKVRAGDNKYMHLKVFKSLHIYEHIVYREDLVLTGYQVDKNKDDELTGF
notes: His-tagged
Take B21: the binding result is “binds”.

B22: Clone 113 (designed binder)
chain: MIPGGLSEAKPATPEIQEIVDKVKPQLEEKTGETYGKLEAVQYKTQVDWVTRHHTLVGTNYYIKVRAGDNKYMHLKVFKSLPPFKHWHLEDLVLTGYQVDKNKDDELTGF
notes: His-tagged
B22: the binding result is “binds”.

B23: Clone 116 (designed binder)
chain: B22 chain
notes: His-tagged
Regarding B23, the binding result is on record as “binds”.

B24: Clone 118 (designed binder)
chain: MIPGGLSEAKPATPEIQEIVDKVKPQLEEKTGETYGKLEAVQYKTQVDVISIPLVWNGTNYYIKVRAGDNKYMHLKVFKSLIFQEYYPHREDLVLTGYQVDKNKDDELTGF
notes: His-tagged
For B24, the binding result is given as “binds”.

B25: Clone 122 (designed binder)
chain: B24 chain with S51H, L54H, V55Q, N57H, Q84H, Y86P, Y87K, H89P
notes: His-tagged
Turning to B25, the binding result is recorded as “binds”.

B26: Clone 107 (designed binder)
chain: MIPGGLSEAKPATPEIQEIVDKVKPQLEEKTGETYGKLEAVQYKTQVDFTDIHWSTWGTNYYIKVRAGDNKYMHLKVFKSLIPAWQQIHVEDLVLTGYQVDKNKDDELTGF
notes: His-tagged
As for B26, the binding result is “binds”.

B27: Clone 40 (designed binder)
chain: MIPGGLSEAKPATPEIQEIVDKVKPQLEEKTGETYGKLEAVQYKTQVVKRRHFPQWQGTNYYIKVRAGDNKYMHLKVFKSLGDHLNQYPNEDLVLTGYQVDKNKDDELTGF
notes: His-tagged
With B27, the binding result is “binds”.

B28: Clone 184 (designed binder)
chain: MIPGGLSEAKPATPEIQEIVDKVKPQLEEKTGETYGKLEAVQYKTQVVHRKHFHQFTGTNYYIKVRAGDNKYMHLKVFKSLSNDYYETYLEDLVLTGYQVDKNKDDELTGF
notes: His-tagged
Turning to B28, the binding result is given as “binds”.

B29: Clone 48 (designed binder)
chain: MIPGGLSEAKPATPEIQEIVDKVKPQLEEKTGETYGKLEAVQYKTQVVTRKHFPQYWGTNYYIKVRAGDNKYMHLKVFKSLNEPLPVTNIEDLVLTGYQVDKNKDDELTGF
notes: His-tagged
In the case of B29, the binding result is on record as “binds”.

B30: Clone 246 (designed binder)
chain: MIPGGLSEAKPATPEIQEIVDKVKPQLEEKTGETYGKLEAVQYKTQVVERFHFPQFPGTNYYIKVRAGDNKYMHLKVFKSLPHLDYIWNWEDLVLTGYQVDKNKDDELTGF
notes: His-tagged
On to B30, for which the binding result was “binds”.

B31: Clone 175 (designed binder)
chain: MIPGGLSEAKPATPEIQEIVDKVKPQLEEKTGETYGKLEAVQYKTQVVWRRWFPQWPGTNYYIKVRAGDNKYMHLKVFKSLPEADADDPKEDLVLTGYQVDKNKDDELTGF
notes: His-tagged
With B31, the binding result is given as “binds”.

B32: Clone 247 (designed binder)
chain: MIPGGLSEAKPATPEIQEIVDKVKPQLEEKTGETYGKLEAVQYKTQVVRREHFPRWPGTNYYIKVRAGDNKYMHLKVFKSLDLLLRKEEVEDLVLTGYQVDKNKDDELTGF
notes: His-tagged
Take B32: the binding result is reported as “binds”.

B33: Clone 119 (designed binder)
chain: MIPGGLSEAKPATPEIQEIVDKVKPQLEEKTGETYGKLEAVQYKTQVDSWVFKPFYHGTNYYIKVRAGDNKYMHLKVFKSLSGPEFFSRHEDLVLTGYQVDKNKDDELTGF
notes: His-tagged
Take B33: the binding result was “binds”.

B34: Clone 102 (designed binder)
chain: MIPGGLSEAKPATPEIQEIVDKVKPQLEEKTGETYGKLEAVQYKTQVDRKAAVVARHGTNYYIKVRAGDNKYMHLKVFKSLWPFLVIEKYEDLVLTGYQVDKNKDDELTGF
notes: His-tagged
As for B34, the binding result is given as “binds”.
